PMC9452295 (2022)

Key:
[1] = biological target: T1, MRAS(1–178)–Avi, biotinylated, wild type (human, UniProt O14807 1-178, biotin on the Avi tag); assay: SPR; +PP1Cα(P50R)
T1 chain: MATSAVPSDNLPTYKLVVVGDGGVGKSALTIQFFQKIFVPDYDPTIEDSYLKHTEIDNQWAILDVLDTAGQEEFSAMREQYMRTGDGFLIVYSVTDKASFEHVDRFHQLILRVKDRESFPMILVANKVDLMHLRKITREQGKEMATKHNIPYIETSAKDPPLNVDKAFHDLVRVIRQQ

[2] = biological target: T1, MRAS(1–178)–Avi, biotinylated, wild type; assay: SPR; +PP1Cα

B1: SHOC2 (residues 80–582, LRR domain), wild type (domain or fragment)
chain: GTRKKSSNAEVIKELNKCREENSMRLDLSKRSIHILPSSIKELTQLTELYLYSNKLQSLPAEVGCLVNLMTLALSENSLTSLPDSLDNLKKLRMLDLRHNKLREIPSVVYRLDSLTTLYLRFNRITTVEKDIKNLSKLSMLSIRENKIKQLPAEIGELCNLITLDVAHNQLEHLPKEIGNCTQITNLDLQHNELLDLPDTIGNLSSLSRLGLRYNRLSAIPRSLAKCSALEELNLENNNISTLPESLLSSLVKLNSLTLARNCFQLYPVGGPSQFSTIYSLNMEHNRINKIPFGIFSRAKVLSKLNMKDNQLTSLPLDFGTWTSMVELNLATNQLTKIPEDVSGLVSLEVLILSNNLLKKLPHGLGNLRKLRELDLEENKLESLPNEIAYLKDLQKLVLTNNQLTTLPRGIGHLTNLTHLGLGENLLTHLPEEIGTLENLEELYLNDNPNLHSLPFELALCSKLSIMSIENCPLSHLPPQIVAGGPSFIIQFLKMQGPYRAMV
- Kd [1]: 34.8 nM
- Kd [2]: 86.3 nM
